Data on 99 substances can be found in the supplement of paper PMC12042874.

± gives the uncertainty stated by the source.

One data set is described as follows: amyloid nucleation score (Sup35N fusion, yeast selection) (log enrichment); library NNK2; higher = more nucleation; inactive = no reads after selection. In a few lines: (§1)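 Output and input plasmid inserts were sequenced by Illumina after psi-negative yeast carrying Sup35N fused to peptides of 20 random codons had been induced 24 hours with 100 μM copper sulfate and grown 7 days at 30°C on medium lacking adenine and uracil. The nucleation score is the DiMSum log enrichment of output over input reads, centred on the mode score of non-aggregating sequences. Sequences with under 100 input reads were excluded.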
On to AAACAGIKFLLTFTFGFRTW, for which the amyloid nucleation score result is “inactive”.
The substance AAAHLH showed an amyloid nucleation score of -0.75 ± 0.76.
Take AAFLAVSGFCNLPGGSTHIL: the amyloid nucleation score turned out to be 2.38 ± 0.079.
As to AAMPLPF, the amyloid nucleation score result was “inactive”.
AAVNWNRFPKTVTA returned an amyloid nucleation score of -0.195 ± 0.33.
The same measure, in the same setting: the value for AAVSSCLLFYSC was 3.5 ± 0.082; that for AAVTFSISYFIKTLHLENSS was 0.169 ± 0.28; that for AAWNRPHMERRFSYEGYYIV was -0.508 ± 0.63.
The same measure, in the same setting: in the case of ACKRGTFQWNACLSPGSCGR it was 0.902 ± 0.36; in that of ACSRANLAKKLRGMWRYSAF, -0.199 ± 1.1; in that of ACSYANLLVTLLNSPEMPVE, 0.306 ± 0.5.
On the same count and under the same terms, in the case of ACTLCGVWSVFTIFARHKIR it was 3.1 ± 0.18; in that of ACTVWIMLRDSCWKARDRSG, 2.95 ± 0.082; in that of ADCLKSCLAMSGF, -0.14 ± 0.8.
On to ADKCYGYASACVFSGSLVC, for which the amyloid nucleation score turned out to be 0.028 ± 0.56.
Still for that read-out and setting: the value for ADPSDVFMVVVLGSCRAFTV was 1.63 ± 0.47; that for ADWQYHSVYMNTVRDKCLAQ was -0.06 ± 0.28; that for AEAYGTSSRRSCCRGRVV was 0.476 ± 0.5.
AELSA registered an amyloid nucleation score of 0.606 ± 0.8.
For the substance AESICSSVRSYGMSSFRDPE, the amyloid nucleation score is -0.887 ± 0.64.
On the same count and under the same terms, in the case of AEVCEVRTFVPYSCLFYSST it was 5.22 ± 0.06.
On the same count and under the same terms, in the case of AFAVSSLESGWRRRTSLEWL it was 0.106 ± 0.55.
Still for that read-out and setting: in the case of AFCTKCASMRAILRGGGLVW it was -0.109 ± 0.76; in that of AFPNNFTRLYALEVLFGFRN, 2.1 ± 0.21; in that of AFQITSERLGWKKVNHAVRW, 0.432 ± 0.8.
With AFSFDAW, the amyloid nucleation score was 2.02 ± 0.14.
On the same count and under the same terms, in the case of AFSNSM it was 0.988 ± 0.52; in that of AFTSLPLCYSVYGKIKFCPC, 0.433 ± 0.62.
Still for that read-out and setting: in the case of AFWKVRLYRRPG it was 1.76 ± 0.24; in that of AFWVLTVPLGSWYCACYCYS, -0.662 ± 0.39; in that of AGASSRKWGLYDVYVERSEA, “inactive”.
In the case of AGDAAN, the amyloid nucleation score result is “inactive”.
Still for that read-out and setting: the value for AGFTLYFGMTRNYQYSDCSP was 4.23 ± 0.066; that for AHCVRVLHIKSRMVVSWESR was 4.19 ± 0.099.
On the same count and under the same terms, the value for AHHPYTNQGSTVRSRAGQWG was 0.519 ± 0.54.
Same read-out and setting: the value for AHHYSESRGFRCCLTSGYFC was 0.818 ± 0.25; that for AHLVCRLYETMQLYLYLQWY was -1.01 ± 0.3; that for AHYRR was -0.226 ± 0.45.
On to AIEKSQYLSNVDYRICSLMT, for which the amyloid nucleation score was -0.336 ± 0.23.
On the same count and under the same terms, the value for AINCKTGRKLNWIVFGRFTV was -0.315 ± 0.25.
As to AIRGTECYWLAWVGLAVKRR, the amyloid nucleation score came to 1.12 ± 0.23.
Same read-out and setting: the value for AKFTL was -0.253 ± 0.3.

A short description of a further data set: amyloid nucleation score (Sup35N fusion, yeast selection) (log enrichment); library NNK3; higher = more nucleation; inactive = no reads after selection. In a few lines: as §1
With YSFWIVFMRY, the amyloid nucleation score entry was “inactive”.
The same measure, in the same setting: in the case of YSGFSYVRGLYGSGYVMAQP it was -0.192 ± 0.52; in that of YSGIAS, “inactive”.
For YSGWTPKLAVH, the amyloid nucleation score result is “inactive”.
The same measure, in the same setting: the value for YSIDMHVNVHGTYYLMSKWV was 1.73 ± 0.12; that for YSISKAFPMLSRLDMDMFGA was “inactive”.
On the same count and under the same terms, in the case of YSKRAHVFYES it was -0.06 ± 0.36; in that of YSKSLCVFKSICIELDF, 2.08 ± 0.062; in that of YSLRNNFLLVFSLVSDRPIG, 1.06 ± 0.12.
The same measure, in the same setting: in the case of YSNLLAYWIQISKWIATGRC it was “inactive”; in that of YSNWLTSRNYTNLLLL, “inactive”; in that of YSPTAN, “inactive”.
Consider YSSFAANSCFLERVEVKSDL, for which the amyloid nucleation score result was “inactive”.
Same read-out and setting: the value for YSSGGYLTRVRRKGSMYRAL was “inactive”; that for YSTMLLVHYMFLKIE was “inactive”; that for YSVTAHPLDHTNPRGNYPDH was “inactive”.
Still for that read-out and setting: the value for YSYNQIWFLLV was “inactive”; that for YTALL was “inactive”; that for YTNALPAITFVVIGHLAIQ was 2.64 ± 0.068.
Take YTSGRSVSGRCHLWELKAIK: the amyloid nucleation score result is “inactive”.
The same measure, in the same setting: the value for YTWLAFRFSTSLHPRYSNIG was “inactive”; that for YVAVGKKLNHRSSSSLSRFF was “inactive”.
Same read-out and setting: in the case of YVFFIVMASSCWHVHSYNYF it was -0.437 ± 0.98; in that of YVLELGAGGPKNMIHDMNAD, “inactive”; in that of YVLFCCCPLMDFITDLSLST, 2.1 ± 0.055.
Still for that read-out and setting: the value for YVLQTFEGSCVLKRLHIRFM was “inactive”; that for YVSLVSLCMCIRLQGEFLYG was 1.24 ± 0.089; that for YVSQQYCWPGFFHRVHTGKS was “inactive”.
With YVSRDVGNRNATSY, the amyloid nucleation score entry was “inactive”.
Still for that read-out and setting: the value for YVWASIFFFTSYDEVVGRHV was 1.46 ± 0.13; that for YWASARTRSGYFDVNKFSGG was “inactive”.
For YWDDWLNSTGRDPSHKPRRT, the amyloid nucleation score stood at 1.95 ± 0.07.
Still for that read-out and setting: in the case of YWIEAPIFYPLFTAIVKQAM it was 0.294 ± 0.49.
Take YWKRAGPQFGVPDSWTPSGP: the amyloid nucleation score entry is “inactive”.
Take YWLDLYSKCLSSSVEISLGI: the amyloid nucleation score result was “inactive”.
Same read-out and setting: in the case of YWLMKALQIWHSENRFRYIE it was “inactive”; in that of YWNIFGVVSN, “inactive”; in that of YWNLIWWAKQWDVFTGEEAL, “inactive”.
Same read-out and setting: the value for YWQDGQ was “inactive”; that for YWRELDSIQCNLFRGQPFNL was “inactive”; that for YWYIIYAMSGLWYSSVNRVD was “inactive”.
Still for that read-out and setting: the value for YYCTM was “inactive”.
For the substance YYDYLRWLLEHIHFCTWGPY, the amyloid nucleation score result was “inactive”.
The same measure, in the same setting: in the case of YYKRYGGYPGNQHMSVGHRF it was “inactive”; in that of YYLFWVAFDMMLRLRFFVMD, “inactive”.
The same measure, in the same setting: the value for YYLGSADGDPDIKWSLGYRK was “inactive”; that for YYLSTTGMWNFVSSNGALYG was -0.793 ± 1.3; that for YYLVDRWREFVGYRKKDCVA was “inactive”.
The same measure, in the same setting: in the case of YYLVSWYVTTVLKSGLLSVR it was “inactive”.
Turning to YYQGAQPLNPGAR, the amyloid nucleation score result was “inactive”.
Turning to YYQMRYCQWDAIQVENWVRR, the amyloid nucleation score entry was “inactive”.
Turning to YYRGITMCT, the amyloid nucleation score entry is “inactive”.
The same measure, in the same setting: the value for YYTWVCECSYWHSVFM was “inactive”; that for YYVTQGVRVGQYLTNRERDE was -0.195 ± 0.44; that for YYWRMYCS was “inactive”.
The same measure, in the same setting: the value for YYYLKCFTYCVLLFYYS was “inactive”.
Same read-out and setting: in the case of YYYQNRYFELRHLPEFSS it was “inactive”.
